This is an account of results in publication PMC6728143, “Distinct mechanisms of microRNA sorting into cancer cell-derived extracellular vesicle subtypes”.

For series [1], the target named is T1, Lupus La protein (La) (Homo sapiens, UniProt P05455 1-408).
T1 sequence: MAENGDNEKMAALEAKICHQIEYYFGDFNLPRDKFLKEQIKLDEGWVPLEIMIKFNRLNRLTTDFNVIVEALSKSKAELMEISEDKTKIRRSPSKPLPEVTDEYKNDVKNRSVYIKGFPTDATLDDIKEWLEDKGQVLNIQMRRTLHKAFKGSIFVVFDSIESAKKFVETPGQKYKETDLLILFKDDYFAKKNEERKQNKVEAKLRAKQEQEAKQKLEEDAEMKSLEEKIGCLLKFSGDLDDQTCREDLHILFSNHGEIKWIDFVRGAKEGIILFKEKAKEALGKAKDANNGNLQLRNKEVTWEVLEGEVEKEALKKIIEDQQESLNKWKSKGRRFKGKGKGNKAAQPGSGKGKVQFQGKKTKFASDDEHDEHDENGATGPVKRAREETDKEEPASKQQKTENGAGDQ
Briefly: EMSA; EMSA: 1 nM RNA, La 250 pM-2 uM; 25 mM Tris pH 8, 100 mM KCl, 1.5 mM MgCl2, 0.2 mM EGTA, 0.05% NP-40, 50 ug/ml heparin; 30 C 30 min, then ice 10 min; 6% gel at 4 C; Hill fit. Particulars: protein: recombinant; tags: N-terminal 6xHis; label: 5' IRDye800CW.

Series [2] has as its target T1, Lupus La protein (La). Described as above. As to conditions: protein: recombinant; tags: N-terminal 6xHis; label: 5' IRDye800CW. The source holds these as a separate data set.

B1: miR-122 3'mut (ssRNA)
RNA: UGGAGUGUGACAAUGGUGAAAG
For the molecule B1, the Kd in series [1] came out at 538 nM.

B2: miR-122 5'mut (ssRNA)
RNA: ACACGUGUGACAAUGGUGUUUG
Take B2: the binding signal in series [2] is ~10 fold lower affinity than WT.

B3: miR-122-5p WT (ssRNA)
RNA: UGGAGUGUGACAAUGGUGUUUG
For the molecule B3, in series [1], the Kd was 4.8 nM.
